From patent US6939949B2
pKd: −log10 of the molar value.

Key:
UvrA [1] = experiment: BIACORE sensor chip (NTA), β domain immobilised, UvrA in solution, in the presence of ATP
UvrA [2] = experiment: BIACORE sensor chip (NTA), β domain immobilised, UvrA in solution, in the absence of ATP

“TRCF-β (β domain of Thermus thermophilus HB8 transcription-repair coupling factor), His-tagged” was tested, and the pKd (UvrA [1]) was 6.30 and the pKd (UvrA [2]) was 5.89.
